The text below walks through data of paper PMC8458290 (Nature Communications, 2021).

What is called Kd is the constant that tells how readily two partners part at equilibrium.

For the assay, the target named is SARS-CoV-2 receptor-binding domain (amino acids 330-532), Victoria strain, biotinylated (SARS-CoV-2, Wuhan/Victoria (B), UniProt P0DTC2, biotinylated (site not stated)). The assay is described as follows: SPR. The note with it: both partners purified.

B1: nanobody C1 (monovalent VHH, pOPINO construct) (VHH)
VHH: QVQLVESGGGLVQPGGSLRLSCAASGFTNDFYSIAWFRQAPGKEREGVSWLSVSDNTPTYVDSVKDRFTISRHNANNTVYLQMNMLKPEDTAIYYCAAGRFAGRDTWPSSYDYWGQGTQVTVSS
B1 gave a Kd of 0.615 nM and a T1/2 of 20 min.

B2: nanobody F2 (monovalent VHH, pOPINO construct) (VHH)
VHH: QVQLVESGGGLVQAGGSLRLACIASGRTFHSYVMAWFRQAPGKEREFVAAISWSSTPTYYGESVKGRFTISRDNAKNTVYLQMNRLKPEDTAVYFCAADRGESYYYTRPTEYEFWGQGTQVTVSS
B2 gave a Kd of 0.04 nM.
